Patent publication US8163734B2, “Use of a mast cell activation or degranulation blocking agent in the manufacture of a medicament for the treatment of a patient subjected to thrombolyses” (priority 2004, dated 2012)
Entries after “also recorded” stand apart in the source; their conditions may differ.

Legend:
[1] = system: middle cerebral artery occlusion (MCAO) in rats; test: 90 min middle cerebral artery occlusion with r-TPA 10 mg/kg infusion; brains dissected 4.5 h after reperfusion (Example 2); assay type: in vivo, rat
Experimental: Rats were given 10 mg/kg of r-TPA, which is considered equivalent to the typical dose given to humans in thrombolysis in stroke and myocardial infarction. Two timings of r-TPA were used to investigate in rat brain the hemorrhagic conversion of infarction, the single most serious complication and hazard in clinical thrombolytic therapy. The group termed r-TPA+saline received 1-hour infusiuon of r-TPA starting 5 minutes (10% as bolus) prior to reperfusion after 90 min of middle cerebral artery occlusion (MCAO), whereas the group saline+r-TPA received r-TPA starting 1 hour after the reperfusion after 90 min of MCAO. […] Brains were dissected at 4.5 hours after reperfusion. Areas of hemorrhage were measured by microscopical image analysis on six histological sections cut through the hemispheres and added together (cf. FIG. 3)
The polymorphonuclear leukocytes (neutrophils, shown in bars, left Y-axis, of FIG. 4) were calculated on the section encompassing the basal ganglia, infarct core and penumbra.
They were also treated with 10 mg/kg of r-TPA in a 1-hour infusion starting […] (10% as bolus) before reperfusion, a dose equivalent to that used clinically in thrombolysis of human stroke and myocardial infarction. Brains were dissected at 4.5 hours after reperfusion. The amount of brain edema was measured by quantitating the areas of hemispheres on histological sections with microscopical image analysis.
In the lower panel, the total area of hemorrhagic conversion was quantitated in six sections cut through the hemispheres.

[2] = system: spontaneous intraventricular bleedings; settings: in vivo; cited from earlier work
[3] = system: rat peritoneal mast cells; test: Degranulation of rat peritoneal mast cells ex vivo; assay type: cell-based

r-TPA: alteplase (recombinant tissue plasminogen activator), a serine protease leading to plasmin formation
neutrophil density ([1]; both r-TPA groups compared to sham-operated rats): significantly increased
hemorrhage formation in rat brain ([1]; r-TPA 10 mg/kg, started 5 min before or 1 hour after reperfusion, vs sham operated or saline-treated controls): substantial hemorrhage formation; also recorded: significant hemorrhage formation
increase in total number of neutrophils in the tissue, ischemic hemisphere ([1]; r-TPA infusion): up to 3 fold
increase in total number of neutrophils in the tissue, non-infarcted hemisphere ([1]; r-TPA infusion): up to 5 fold
degranulation of cells consistent with mast cell morphology, non-ischemic hemisphere ([1]; r-TPA infusion 5 minutes before reperfusion, 90 minute ischemia): up to 60%
degranulation of cells consistent with mast cell morphology, ischemic hemisphere ([1]; r-TPA infusion 5 minutes before reperfusion, 90 minute ischemia, up to 50% without r-TPA): up to 70%
rates of secondary brain hemorrhages [2]: more than doubles
degranulation of rat peritoneal mast cells [3]: degranulated
